# Where two headings read alike, the source gives them in different places.
# Legend:
# Experiment in all cases: EMSA
# [1] = target: STK19 3KA (Homo sapiens, UniProt P49842 1-254, K186A;K190A;K201A)
# [2] = target: STK19 25-C (Homo sapiens, UniProt P49842 25-254)
# [3] = target: T1, STK19 (TWH19) WT full-length (Homo sapiens, UniProt P49842 1-254)
# [4] = target: T1, STK19 (TWH19) WT full-length; remark: listed apart in the source
# [5] = target: T1, STK19 (TWH19) WT full-length; remark: listed apart in the source
# T1 sequence (P49842 whole entry): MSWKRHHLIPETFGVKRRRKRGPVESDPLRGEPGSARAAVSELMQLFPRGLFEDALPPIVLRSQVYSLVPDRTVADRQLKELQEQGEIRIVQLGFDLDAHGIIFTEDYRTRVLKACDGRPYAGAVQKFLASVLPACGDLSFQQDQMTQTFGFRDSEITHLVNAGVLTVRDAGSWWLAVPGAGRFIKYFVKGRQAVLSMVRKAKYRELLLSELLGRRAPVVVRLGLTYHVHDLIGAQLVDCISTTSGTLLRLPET
# Chain of STK19 25-C (P49842 25-254): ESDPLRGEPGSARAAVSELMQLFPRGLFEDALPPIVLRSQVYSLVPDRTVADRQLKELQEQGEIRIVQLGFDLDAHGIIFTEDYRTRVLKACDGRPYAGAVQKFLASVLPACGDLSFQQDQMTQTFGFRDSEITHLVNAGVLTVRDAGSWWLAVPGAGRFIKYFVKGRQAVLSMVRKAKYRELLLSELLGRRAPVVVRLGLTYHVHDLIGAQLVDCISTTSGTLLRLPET
# Chain of STK19 3KA (P49842 whole entry K186A/K190A/K201A): as the sequence (P49842 whole entry) above, with K186A, K190A, K201A counted along it
binder,measurement,setting,value
DNA1 (dsDNA) DNA 1: CTGTACTTCCAGGGAATGGAAAGCGACCCTCTGCC DNA 2: GGCAGAGGGTCGCTTTCCATTCCCTGGAAGTACAG,binding result,[1],no binding
same,Kd,[2],3.8 µM
"DNA1 UVB-irradiated (dsDNA, UVB irradiated, lesions undefined) DNA 1: CTGTACTTCCAGGGAATGGAAAGCGACCCTCTGCC DNA 2: GGCAGAGGGTCGCTTTCCATTCCCTGGAAGTACAG",binding result,[3],binds
DNA-30 bp-AT (dsDNA) DNA 1: AAAAAAAAAAAAAAAAAAAAAAAAAAAAAA DNA 2: TTTTTTTTTTTTTTTTTTTTTTTTTTTTTT,binding result,[4],binds
RNA-30 bp-AT (dsRNA) RNA 1: AAAAAAAAAAAAAAAAAAAAAAAAAAAAAA RNA 2: UUUUUUUUUUUUUUUUUUUUUUUUUUUUUU,binding result,[5],binds

# From paper PMC10806857
